How the values were obtained:
[1] = molecular target: DRB1*07:01 (Homo sapiens, UniProt P01903+P01911, A100R/A102G/A103Q/D57E/D86V/E43K/F76Y/K127E/L162R/M171V/P40G/Q125H/Q99D/R33Q/R42Y/R54Q/S133A/S66F/T210M/V115G/Y107V/Y59L/Y89S); assay type: cell-based; conditions: for MCR2 construct expression (presentation): 12mer peptides in DRB1*07:01-MCR2
[2] = test system: TCRs from the BAL of COVID-19 patients; assay type: cell-based, human

Row | Substance | MCR2 construct expression (presentation) [1] | recognition by TCR007 (NFAT activation) [2] | peptide presentation by DRB1*07:01 (FACS staining, MEDi-MA scores) ([1]; mutated versus WT peptides)
1 | S714-725(T716I): Spike 12mer peptide with T716I cloned into DRB1*07:01-MCR2 | expressed well | – | –
2 | S714-725: Spike 12mer peptide cloned into DRB1*07:01-MCR2 | expressed well | not | –
3 | S714-728 (T716I): Spike 15mer 714-728 with the T716I mutation of the B1.1.7 variant | – | not recognized | presented as well as the WT
